Measurements: paper PMC12207370, “Macrocyclic Peptide Probes for Immunomodulatory Protein CD59: Potent Modulators of Bacterial Toxin Activity and Antibody‐Dependent Cytotoxicity” (Angewandte Chemie (International Ed. in English), 2025)

Biological target: T1, biotinylated CD59 (Homo sapiens, UniProt P13987)
T1 construct: Recombinant soluble human CD59 with an additional C-terminal cysteine residue
T1 sequence (P13987 26-102 limits assumed): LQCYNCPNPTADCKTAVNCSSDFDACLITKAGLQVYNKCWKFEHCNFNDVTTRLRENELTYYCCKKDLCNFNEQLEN
Experiment: mRNA-display cyclic peptide screen against CD59-biotin, NGS abundance after 6th selection round
Conditions: for Percentage Seq I: counts normalised by total counts of sample Seq I; for Percentage Seq I / Percentage Seq II: percentage of the pool; for Percentage Seq I / Percentage Seq II / Percentage Average / Percentage of the pool, averaged across the two sequencing samples / Percentage of the pool, Seq I / Percentage of the pool, Seq II: sheet R6; for Percentage Seq II: counts normalised by total counts of sample Seq II; for Percentage Average: percentage of the pool averaged across the two sequencing samples; for Counts Seq I / Counts Seq II: raw NGS counts of peptide sequence; for Counts Seq I: sequencing sample Seq I; for Counts Seq I / Counts Seq II / Counts (raw counts for peptide sequence), Seq I / Counts (raw counts for peptide sequence), Seq II: sheet R6 (6th selection round); for Counts Seq II: sequencing sample Seq II; for Counts (raw counts for peptide sequence), Seq I: NGS sample Seq I; for Counts (raw counts for peptide sequence), Seq II: NGS sample Seq II; for Percentage of the pool, averaged across the two sequencing samples: average of Seq I and Seq II; for Percentage of the pool, Seq I: counts normalised by total counts of NGS sample Seq I; for Percentage of the pool, Seq II: counts normalised by total counts of NGS sample Seq II
Source text: To discover novel non‐protein CD59 ligands, we screened a library of 10^12 cyclic peptides against CD59 using mRNA‐display (Figure 2a).^[ [23], [24], [25], [26], [27], [28], [29] ^] Briefly, an mRNA library was designed in which the start codon was reprogrammed from Met to N‐chloroacetyl‐D‐Tyr (ClAc‐D‐Tyr), followed by 10–12 randomly encoded natural amino acids, a Cys residue, a (GlySer)3 linker, and a stop codon. […] The total library diversity was 1.51 × 10^13 molecules, comprising 5.02 × 10^12 molecules of each macrocycle size, covering a subset of the maximum theoretical diversity of this library design. Following in vitro translation, ClAc‐D‐Tyr spontaneously reacts with either the C‐terminal Cys or a Cys in the random region, yielding macrocyclic thioether peptides. Hits from the library were identified through iterative enrichment and amplification against biotinylated CD59, then immobilized on streptavidin beads. Fifteen hit sequences (CP‐01 to CP‐15), enriched with abundance >1% relative to the total pool of recovered binders after the 6th round of selection, were synthesized by solid phase peptide synthesis (SPPS), without the (Gly‐Ser)3 linker.
Figure 2 Discovery of macrocyclic peptide ligands with nanomolar CD59 affinity using mRNA display. a) The selection process. PCR = polymerase chain reaction, SPPS = solid phase peptide synthesis. b) Table showing details of the peptides with nanomolar affinity for CD59 as well as the binding affinity of the lead inhibitor of CD59, rILYd4. K D values are presented as the average of three technical replicates ± SEM. Structures of all peptides and SPR sensograms are presented in Figures S1 and S2. *indicates the presented sequences are the variable regions of these cyclic peptides; each is flanked by an N‐terminal Ac‐D‐Tyr cyclized to a C‐terminal Cys. R6 abundance (%) is defined as (the given number of NGS reads for a given sequence/the total number of reads of unique sequences observed in NGS)*100 following the 6th selection round. c) Representative sensogram of the interaction between CP‐06 with immobilized CD59 by SPR analysis. Inset showing the equilibrium binding curve of CP‐06 to CD‐59. Below in the box are the association and dissociation rate constants of CP‐06. Concentrations are plotted in descending order from 800‐3.1 nM in line with their position on the legend. […] (nM)'; the box with Kon/Koff has no label of its own / ILYd4: the label may be cut off at the left edge (possibly 'rILYd4') / CP-02, KD: 15.3 ± 0.2, small print, 3 or 8 uncertain / CP-03, KD: 23.4 ± 0.7, small print / CP-06, KD: 11.3 ± 0.0, small print, 3 or 8 uncertain / CP-13, KD: 10.8 ± 0.7, small print, 8 or 6 uncertain / ILYd4, KD: 48.3 ± 1.1, small print, 8 and 3 uncertain
The mRNA-display cyclic peptide screen was performed against CD59-biotin by T.E.M: DNA templates for transcription were generated by PCR in a similar manner to that previously described.^2 RNA oligonucleotides were transcribed from the DNA templates using T7 RNA polymerase and purified by phenol/chloroform extraction followed by ethanol precipitation. Oligonucleotide concentrations were determined spectroscopically by absorbance at 260 nm. In the first selection round a 1:1:1 molar ratio of NNK10/NNK11/NNK12 was used. The procedure for selection rounds 2-6 is described below; round 1 was conducted at twice the scale.
RNA encoding for the peptide library ligated to a puromycin-modified oligonucleotide was […] (final [RNA] = 2.5 µM) using a customised PURE express kit (lacking release factor 1 and methionine, supplemented with […] initiator tRNA acylated with N-chloroacetyl-d-tyrosine prepared as previously described)^3 in a final volume of 5.6 µL for 1 hour at 37 °C.
This mixture was incubated at 42 °C for 1 hour before being diluted to 500 µL with PBS (10 mM Na-PO4 pH 7.4, 2.7 mM KCl, 137 mM NaCl) and 0.5 µL taken for subsequent use in qPCR. […]

| Sequence | Percentage Seq I [%] | Percentage Seq II [%] | Percentage Average [%] | Counts Seq I | Counts Seq II | Counts (raw counts for peptide sequence), Seq I | Counts (raw counts for peptide sequence), Seq II | Percentage of the pool, averaged across the two sequencing samples [%] | Percentage of the pool, Seq I [%] | Percentage of the pool, Seq II [%] |
| --- | --- | --- | --- | --- | --- | --- | --- | --- | --- | --- |
| CFALRLSQTSV | 0.018 | 0.042 | 0.030 | 78 | 18 |  |  |  |  |  |
| CFANRLYGSDSH | 0.031 | 0.035 | 0.033 | 135 | 15 |  |  |  |  |  |
| CFANRLYGSDSR | 0.040 | 0.039 | 0.040 | 177 | 17 |  |  |  |  |  |
| CFARRLSASFGT | 1.002 | 0.935 | 0.969 | 4384 | 403 |  |  |  |  |  |
| CFARRLSASLGT | 0.033 | 0.021 | 0.027 | 145 | 9 |  |  |  |  |  |
| CFARRLSASSGT | 0.024 | 0.028 | 0.026 | 106 | 12 |  |  |  |  |  |
| CFARRLSSSHSL | 0.161 | 0.155 | 0.158 | 705 | 67 |  |  |  |  |  |
| CFARRVNNSSL | 0.031 | 0.028 | 0.030 | 137 | 12 |  |  |  |  |  |
| CFASRLTIDAV | 0.032 | 0.028 | 0.030 | 140 | 12 |  |  |  |  |  |
| CFASRTLLNTSV | 0.102 | 0.104 | 0.103 | 446 | 45 |  |  |  |  |  |
| CFAYRTHTTAV |  |  |  |  |  | 63 | 6 | 0.014 | 0.014 | 0.014 |
| CFGGRTFIYAWS |  |  |  |  |  | 34 | 5 | 0.010 | 0.008 | 0.012 |
| CFGRRADPDGI | 0.040 | 0.030 | 0.035 | 174 | 13 |  |  |  |  |  |
| CFIRRSIESGTA |  |  |  |  |  | 56 | 10 | 0.018 | 0.013 | 0.023 |
| CFKHRLGTDSA | 0.097 | 0.086 | 0.091 | 423 | 37 |  |  |  |  |  |
| CFKKRLDTVST | 0.021 | 0.016 | 0.019 | 91 | 7 |  |  |  |  |  |
| CFLKRDRSASI |  |  |  |  |  | 56 | 7 | 0.015 | 0.013 | 0.016 |

| Sequence | Percentage Seq I [%] | Percentage Seq II [%] | Percentage Average [%] | Counts Seq I | Counts Seq II | Counts (raw counts for peptide sequence), Seq I | Counts (raw counts for peptide sequence), Seq II | Percentage of the pool, averaged across the two sequencing samples [%] | Percentage of the pool, Seq I [%] | Percentage of the pool, Seq II [%] |
| --- | --- | --- | --- | --- | --- | --- | --- | --- | --- | --- |
| CFLNRASFSGI |  |  |  |  |  | 60 | 6 | 0.014 | 0.014 | 0.014 |
| CFLTRASQLSGT |  |  |  |  |  | 44 | 4 | 0.010 | 0.010 | 0.009 |
| CFLYRNNPDSV | 0.069 | 0.067 | 0.068 | 303 | 29 |  |  |  |  |  |
| CFNSRLHIGAV | 0.041 | 0.058 | 0.050 | 181 | 25 |  |  |  |  |  |
| CFQNRMAYGDI |  |  |  |  |  | 34 | 7 | 0.012 | 0.008 | 0.016 |
| CFQNRVSGSGAL | 0.119 | 0.116 | 0.118 | 522 | 50 |  |  |  |  |  |
| CFQNRVTSDSAK | 0.160 | 0.142 | 0.151 | 702 | 61 |  |  |  |  |  |
| CFQRRTLGPDAI | 0.094 | 0.088 | 0.091 | 412 | 38 |  |  |  |  |  |
| CFRFRLNATSS | 0.075 | 0.060 | 0.068 | 329 | 26 |  |  |  |  |  |
| CFRNRIDLIS |  |  |  |  |  | 49 | 5 | 0.011 | 0.011 | 0.012 |
| CFRNRVLEITST | 0.042 | 0.032 | 0.037 | 183 | 14 |  |  |  |  |  |
| CFRSRAVSNGT |  |  |  |  |  | 57 | 8 | 0.016 | 0.013 | 0.019 |
| CFRYRLGLTST | 0.062 | 0.058 | 0.060 | 271 | 25 |  |  |  |  |  |
| CFRYRVTPTSY | 0.023 | 0.014 | 0.018 | 100 | 6 |  |  |  |  |  |
| CFSARAIHGSL |  |  |  |  |  | 38 | 6 | 0.011 | 0.009 | 0.014 |
| CFSARAILDGGW | 0.249 | 0.248 | 0.249 | 1089 | 107 |  |  |  |  |  |
| CFSARATLDGGW | 0.036 | 0.030 | 0.033 | 157 | 13 |  |  |  |  |  |
